From US20060134087A1, “ITI-D1 Kunitz domain mutants as hNE inhibitors” (Dyax Corp., priority 1988, published 2006)

Key:
[1] = target: T1, hNE (Homo sapiens, UniProt P08246); assay: Storage stability of purified inhibitor stock solutions; assay type: physicochemical
T1 sequence (P08246 30-267): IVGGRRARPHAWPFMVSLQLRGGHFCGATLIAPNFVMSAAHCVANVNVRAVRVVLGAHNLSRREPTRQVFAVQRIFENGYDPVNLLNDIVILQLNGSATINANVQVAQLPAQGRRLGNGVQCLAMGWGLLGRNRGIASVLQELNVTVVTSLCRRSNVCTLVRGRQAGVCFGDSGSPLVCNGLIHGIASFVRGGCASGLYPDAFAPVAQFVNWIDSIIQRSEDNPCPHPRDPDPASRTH
Protocol: Residual ammonium sulfate was removed from the EPI-HNE-2 preparation by ion exchange chromatography. The solution from the ammonium sulfate precipitation step was applied to a strong cation-exchange column (50 ml bed volume Macroprep 50S) (Bio-Rad Laboratories, Inc, Hercules, Calif.) previously equilibrated with 10 mM NaCitrate, pH=3.5. After loading, the column was washed with 300 ml of 10 mM NaCitrate, pH=3.5. EPI-HNE-2 was then batch-eluted from the column with 300 ml of 50 mM NH4OAc, pH=6.2. Fractions containing EPI-HNE-2 activity were pooled and the resulting solution was lyophilized. The dried protein powder was dissolved in 50 ml dH2O and the solution was passed through a 0.2μ filter (#4192, Gelman Sciences, Ann Arbor, Mich.). The concentration of the active inhibitor in the final stock solution was determined to be 2 mM (13.5 mg/ml).
The lyophilized protein powder was dissolved in 26 ml dH2O and the solution was passed through a 0.2μ filter (#4912, Gelman Sciences, Ann Arbor, Mich.). […] EPI-HNE-3 stored in water solution (without any buffering) deteriorated when kept at 4° C.

[2] = target: T1, hNE; assay: Temperature stability, residual inhibitory activity for hNE; assay type: physicochemical; set-up: Residual hNE Inhibitory Activity: unit not given here; settings: for Residual hNE Inhibitory Activity: 18 hours, pH 7.0, 1 μM protein; for temperature below which full inhibitory activity is maintained: thirty minutes, 1 μM, phosphate buffer pH=7
Protocol: The stability of EPI-HNE proteins to temperatures in the range 0° C. to 95° C. was assessed by incubating the inhibitors for thirty minutes at various temperatures and determining residual inhibitory activity for hNE. In these experiments, protein concentrations were 1 μM in phosphate buffer at pH=7. As is shown in Table 40, the four inhibitors are quite temperature stable.
Proteins were incubated at the stated temperature for 18 hours in buffer at pH 7.0. In all cases protein concentrations were 1 μM. At the end of the incubation period, aliquots of the reactions were diluted and residual hNE-inhibition activity determined.

Row | Substance | activity after storage ([1]; stock solution 2 mM, 4° C. and −70° C., more than 11 months) | Residual hNE Inhibitory Activity ([2]; Temperature 0 ° C.) | Residual hNE Inhibitory Activity ([2]; Temperature 23 ° C.) | Residual hNE Inhibitory Activity ([2]; Temperature 37 ° C.) | Residual hNE Inhibitory Activity ([2]; Temperature 52 ° C.) | Residual hNE Inhibitory Activity ([2]; Temperature 65 ° C.) | Residual hNE Inhibitory Activity ([2]; Temperature 80 ° C.) | Residual hNE Inhibitory Activity ([2]; Temperature 93 ° C.) | temperature below which full inhibitory activity is maintained [2] | activity after storage ([1]; stock solution 250 μM, −70° C., more than six months) | material active after storage ([1]; water solution without buffering, 4° C., five months)
1 | EPI-HNE-2: EPI-HNE-1 with four additional residues EAEA at the amino terminus, SEQ ID NO 008 | no loss in activity | 101 | 103 | 97 | 101 | 95 | 101 | 88 | below 90 °C | – | –
2 | EPI-HNE-3: ITI-D2(3-58) with R15I, I18F, Q19P, L20R; SEQ ID NO 026 (AACNLPIVRGPCIAFFPRWAFDAVKGKCVLFPYGGCQGNGNKFYSEKECREYCGVP; Epi-HNE-3) | – | 96 | 105 | 99 | 100 | 87 | 79 | 57 | below 65 °C | no loss of activity | about 70%
